The source of these data is PMC10786891, “Massively parallel profiling of RNA-targeting CRISPR-Cas13d”.

T1: EsCas13d, nuclease-dead (Eubacterium siraeum, UniProt B0MS50, R295A;H300A;R849A;H854A)
T1 sequence: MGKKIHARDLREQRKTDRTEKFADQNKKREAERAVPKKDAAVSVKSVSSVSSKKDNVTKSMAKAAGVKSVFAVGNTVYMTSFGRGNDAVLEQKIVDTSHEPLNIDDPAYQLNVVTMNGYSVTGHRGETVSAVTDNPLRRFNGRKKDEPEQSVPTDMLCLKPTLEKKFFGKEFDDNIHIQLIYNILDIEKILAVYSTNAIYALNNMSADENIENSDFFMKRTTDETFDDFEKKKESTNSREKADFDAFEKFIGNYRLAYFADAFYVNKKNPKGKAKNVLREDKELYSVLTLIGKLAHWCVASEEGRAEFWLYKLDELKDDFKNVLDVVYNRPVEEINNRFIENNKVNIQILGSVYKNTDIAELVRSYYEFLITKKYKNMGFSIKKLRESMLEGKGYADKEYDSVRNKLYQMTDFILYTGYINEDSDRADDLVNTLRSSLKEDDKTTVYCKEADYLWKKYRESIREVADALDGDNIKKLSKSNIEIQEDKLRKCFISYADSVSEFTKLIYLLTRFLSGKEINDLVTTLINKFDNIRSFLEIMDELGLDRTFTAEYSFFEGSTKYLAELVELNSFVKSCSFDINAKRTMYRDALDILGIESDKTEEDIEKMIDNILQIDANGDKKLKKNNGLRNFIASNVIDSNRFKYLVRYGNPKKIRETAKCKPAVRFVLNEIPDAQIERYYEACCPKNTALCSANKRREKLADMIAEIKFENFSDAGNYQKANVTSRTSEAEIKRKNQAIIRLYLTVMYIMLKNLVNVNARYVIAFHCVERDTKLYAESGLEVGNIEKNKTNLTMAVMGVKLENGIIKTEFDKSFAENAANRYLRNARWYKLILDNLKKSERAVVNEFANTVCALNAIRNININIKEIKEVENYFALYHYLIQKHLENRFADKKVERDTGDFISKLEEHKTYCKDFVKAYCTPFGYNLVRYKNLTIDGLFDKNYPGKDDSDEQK

B1: target 1 G5C,U11A (mixed)
RNA 1: CACCCGUGCAAAAAUGCAGGGGUCUAAAACUGAGCGGAUAACCUCUCUAUGG
RNA 2: GGGAAUGGAUCCACAUCUACGAAUUCGUACCAUAGAGAGGAUAUCCCCUCACCGAGAUCGGAAGAGCACACGU
B2: target 1 insC 3' of 19,insA 3' of 4 (mixed)
RNA 1: CACCCGUGCAAAAAUGCAGGGGUCUAAAACUGAGCGGAUAACCUCUCUAUGG
RNA 2: GGGAAUGGAUCCACAUCUACGAAUUCGUACCAUCAGAGAGGUUAUCCGCAUCACCGAGAUCGGAAGAGCACACGU
B3: target 1 insU 3' of 9,insC 3' of 1 (mixed)
RNA 1: CACCCGUGCAAAAAUGCAGGGGUCUAAAACUGAGCGGAUAACCUCUCUAUGG
RNA 2: GGGAAUGGAUCCACAUCUACGAAUUCGUACCAUAGAGAGGUUAUUCCGCUCACCCGAGAUCGGAAGAGCACACGU
B4: target 1 insC 3' of 19,insG 3' of 16 (mixed)
RNA 1: CACCCGUGCAAAAAUGCAGGGGUCUAAAACUGAGCGGAUAACCUCUCUAUGG
RNA 2: GGGAAUGGAUCCACAUCUACGAAUUCGUACCAUCAGAGGAGGUUAUCCGCUCACCGAGAUCGGAAGAGCACACGU
B5: target 1 insU 3' of 21,insG 3' of 3 (mixed)
RNA 1: CACCCGUGCAAAAAUGCAGGGGUCUAAAACUGAGCGGAUAACCUCUCUAUGG
RNA 2: GGGAAUGGAUCCACAUCUACGAAUUCGUACCUAUAGAGAGGUUAUCCGCUGCACCGAGAUCGGAAGAGCACACGU
B6: target 1 C6G,A18G (mixed)
RNA 1: CACCCGUGCAAAAAUGCAGGGGUCUAAAACUGAGCGGAUAACCUCUCUAUGG
RNA 2: GGGAAUGGAUCCACAUCUACGAAUUCGUACCAUGGAGAGGUUAUCGGCUCACCGAGAUCGGAAGAGCACACGU
B7: target 1 insG 3' of 19,insA 3' of 4 (mixed)
RNA 1: CACCCGUGCAAAAAUGCAGGGGUCUAAAACUGAGCGGAUAACCUCUCUAUGG
RNA 2: GGGAAUGGAUCCACAUCUACGAAUUCGUACCAUGAGAGAGGUUAUCCGCAUCACCGAGAUCGGAAGAGCACACGU
B8: target 1 G17A,C22U (mixed)
RNA 1: CACCCGUGCAAAAAUGCAGGGGUCUAAAACUGAGCGGAUAACCUCUCUAUGG
RNA 2: GGGAAUGGAUCCACAUCUACGAAUUCGUAUCAUAAAGAGGUUAUCCGCUCACCGAGAUCGGAAGAGCACACGU
B9: target 1 insC 3' of 3,insG 3' of 1 (mixed)
RNA 1: CACCCGUGCAAAAAUGCAGGGGUCUAAAACUGAGCGGAUAACCUCUCUAUGG
RNA 2: GGGAAUGGAUCCACAUCUACGAAUUCGUACCAUAGAGAGGUUAUCCGCUCCAGCCGAGAUCGGAAGAGCACACGU
B10: target 1 insC 3' of 1,insC 3' of 1 (mixed)
RNA 1: CACCCGUGCAAAAAUGCAGGGGUCUAAAACUGAGCGGAUAACCUCUCUAUGG
RNA 2: GGGAAUGGAUCCACAUCUACGAAUUCGUACCAUAGAGAGGUUAUCCGCUCACCCCGAGAUCGGAAGAGCACACGU
B11: target 1 insU 3' of 14,insU 3' of 1 (mixed)
RNA 1: CACCCGUGCAAAAAUGCAGGGGUCUAAAACUGAGCGGAUAACCUCUCUAUGG
RNA 2: GGGAAUGGAUCCACAUCUACGAAUUCGUACCAUAGAGAUGGUUAUCCGCUCAUCCGAGAUCGGAAGAGCACACGU
B12: target 1 insC 3' of 15,insC 3' of 5 (mixed)
RNA 1: CACCCGUGCAAAAAUGCAGGGGUCUAAAACUGAGCGGAUAACCUCUCUAUGG
RNA 2: GGGAAUGGAUCCACAUCUACGAAUUCGUACCAUAGAGCAGGUUAUCCGCCUCACCGAGAUCGGAAGAGCACACGU
B13: target 1 insU 3' of 14,insA 3' of 10 (mixed)
RNA 1: CACCCGUGCAAAAAUGCAGGGGUCUAAAACUGAGCGGAUAACCUCUCUAUGG
RNA 2: GGGAAUGGAUCCACAUCUACGAAUUCGUACCAUAGAGAUGGUUAAUCCGCUCACCGAGAUCGGAAGAGCACACGU
B14: target 1 insG 3' of 9 (mixed)
RNA 1: CACCCGUGCAAAAAUGCAGGGGUCUAAAACUGAGCGGAUAACCUCUCUAUGG
RNA 2: GGGAAUGGAUCCACAUCUACGAAUUCGUACCAUAGAGAGGUUAGUCCGCUCACCGAGAUCGGAAGAGCACACGU
B15: target 1 insC 3' of 3,insC 3' of 1 (mixed)
RNA 1: CACCCGUGCAAAAAUGCAGGGGUCUAAAACUGAGCGGAUAACCUCUCUAUGG
RNA 2: GGGAAUGGAUCCACAUCUACGAAUUCGUACCAUAGAGAGGUUAUCCGCUCCACCCGAGAUCGGAAGAGCACACGU
B16: target 1 insG 3' of 8,insC 3' of 1 (mixed)
RNA 1: CACCCGUGCAAAAAUGCAGGGGUCUAAAACUGAGCGGAUAACCUCUCUAUGG
RNA 2: GGGAAUGGAUCCACAUCUACGAAUUCGUACCAUAGAGAGGUUAUGCCGCUCACCCGAGAUCGGAAGAGCACACGU
B17: target 1 U8G,G15C (mixed)
RNA 1: CACCCGUGCAAAAAUGCAGGGGUCUAAAACUGAGCGGAUAACCUCUCUAUGG
RNA 2: GGGAAUGGAUCCACAUCUACGAAUUCGUACCAUAGACAGGUUAGCCGCUCACCGAGAUCGGAAGAGCACACGU
B18: target 1 insC 3' of 12,insU 3' of 5 (mixed)
RNA 1: CACCCGUGCAAAAAUGCAGGGGUCUAAAACUGAGCGGAUAACCUCUCUAUGG
RNA 2: GGGAAUGGAUCCACAUCUACGAAUUCGUACCAUAGAGAGGCUUAUCCGUCUCACCGAGAUCGGAAGAGCACACGU
B19: target 1 insA 3' of 7,insG 3' of 6 (mixed)
RNA 1: CACCCGUGCAAAAAUGCAGGGGUCUAAAACUGAGCGGAUAACCUCUCUAUGG
RNA 2: GGGAAUGGAUCCACAUCUACGAAUUCGUACCAUAGAGAGGUUAUCACGGCUCACCGAGAUCGGAAGAGCACACGU
B20: target 1 insA 3' of 15,insA 3' of 3 (mixed)
RNA 1: CACCCGUGCAAAAAUGCAGGGGUCUAAAACUGAGCGGAUAACCUCUCUAUGG
RNA 2: GGGAAUGGAUCCACAUCUACGAAUUCGUACCAUAGAGAAGGUUAUCCGCUACACCGAGAUCGGAAGAGCACACGU
B21: target 1 insC 3' of 3,insU 3' of 1 (mixed)
RNA 1: CACCCGUGCAAAAAUGCAGGGGUCUAAAACUGAGCGGAUAACCUCUCUAUGG
RNA 2: GGGAAUGGAUCCACAUCUACGAAUUCGUACCAUAGAGAGGUUAUCCGCUCCAUCCGAGAUCGGAAGAGCACACGU
B22: target 1 insC 3' of 22,insG 3' of 21 (mixed)
RNA 1: CACCCGUGCAAAAAUGCAGGGGUCUAAAACUGAGCGGAUAACCUCUCUAUGG
RNA 2: GGGAAUGGAUCCACAUCUACGAAUUCGUACCCGAUAGAGAGGUUAUCCGCUCACCGAGAUCGGAAGAGCACACGU
B23: target 1 insG 3' of 11,insU 3' of 7 (mixed)
RNA 1: CACCCGUGCAAAAAUGCAGGGGUCUAAAACUGAGCGGAUAACCUCUCUAUGG
RNA 2: GGGAAUGGAUCCACAUCUACGAAUUCGUACCAUAGAGAGGUGUAUCUCGCUCACCGAGAUCGGAAGAGCACACGU

In this data set the target is T1, EsCas13d, nuclease-dead. The experiment in a line: crRNA (strand 1, pre-loaded); Mg2+; 40 mM Tris-HCl pH 7.5, 150 mM NaCl, 6 mM MgCl2, 1 mM DTT, 0.1% Tween-20, 0.2 mg/ml BSA; 25 C; 10 min per concentration, then washed. To be noted: tags: His6-TwinStrep-SUMO cleaved; N-terminal SNAP kept (SNAP-Surface 488); label: 3' end held by stalled T7 RNA polymerase.
Consider B1, for which the Kd is 46 ± 10 nM.

Turning to B2, the Kd was 25 ± 6 nM.

B3 displayed a Kd of 14.8 ± 0.7 nM.

Consider B4, for which the affinity, expressed as Kd, was 61 ± 11 nM. This Kd lies about 4.1-fold higher than the previous one.

With B5, the Kd worked out at 16.8 ± 0.7 nM.

Molecule B6 registered an equilibrium dissociation constant (Kd) of 48 ± 7 nM. Compared with the last molecule, the Kd is about 2.9-fold higher.

B7: the Kd was determined as 34.8 ± 3.1 nM.

B8 showed a Kd of 59 ± 11 nM. Against the preceding molecule, the Kd is about 1.7-fold higher.

With B9, the Kd turned out to be 11.1 ± 0.8 nM.

Turning to B10, binding was characterised by a dissociation constant (Kd) of 11.2 ± 0.5 nM.

B11 gave a Kd of 48 ± 8 nM. Compared with the last molecule, the Kd is about 4.3-fold higher.

Turning to B12, the Kd came out at 9.8 ± 0.4 nM.

In turn, B13 returned a Kd of 43 ± 5 nM. Compared with the last molecule, the Kd is about 4.4-fold higher.

Consider B14, for which the affinity, expressed as Kd, was 17.2 ± 1 nM.

In the case of B15, the Kd was found to be 15.8 ± 1.1 nM.

The molecule B16 yielded a dissociation constant Kd of 11.6 ± 0.5 nM.

As to B17, the Kd was found to be 90 ± 19 nM.

Molecule B18 yielded a Kd of 11.6 ± 1.5 nM. Against the preceding molecule, the Kd is about 7.8-fold lower.

Molecule B19 came in with a dissociation constant (Kd) of 8.09 ± 0.34 nM.

Take B20: the Kd turned out to be 7.48 ± 0.34 nM.

Take B21: binding was characterised by a dissociation constant (Kd) of 10.8 ± 0.8 nM.

B22 displayed a Kd of 27.3 ± 3.1 nM.

In turn, B23 came in with an equilibrium dissociation constant (Kd) of 24.9 ± 0.8 nM.
